We go through 1 protein from article PMC12207459, “A self-assembling surface layer flattens the cytokinetic furrow to aid cell division in an archaeon” (Proceedings of the National Academy of Sciences of the …, 2025).

The data set concerns the molecule itself. The data set is described as follows: cryo-EM imaging of cells; unlabeled purified S-layer proteins added to live Vps4 E209Q ΔslaA cells, 75 °C, 1 h; lattice seen on the cell surface by cryo-EM.

B1: purified SlaA from wild-type S. acidocaldarius, unlabeled (natural protein, Sulfolobus acidocaldarius, UniProt Q4J6E5 25-1424, looked up)
chain: ITTTALTPPVSAGGIQAYLLTGSGAPASGLVLFVVNVSNIQVSSSNVTNVISTVVSNIQINAKTENAQTGATTGSVTVRFPTSGYNAYYDSVDKVVFVVVSFLYPYTTTSVNIPLSYLSKYLPGLLTAQPYDETGAQVTSVSSTPFGSLIDTSTGQQILGTNPVLTSYNSYTTQANTNMQEGVVSGTLTSFTLGGQSFSGSTVPVILYAPFIFSNSPYQAGLYNPMQVNGNLGSLSSEAYYHPVIWGRALINTTLIDTYASGSVPFTFQLNYSVPGPLTINMAQLAWIASINNLPTSFTYLSYKFSNGYESFLGIISNSTQLTAGALTINPSGNFTINGKKFYVYLLVVGSTNSTTPVEYVTKLVVEYPSSTNFLPQGVTVTTSSNKYTLPVYEIGGPAGTTITLTGNWYSTPYTVQITVGSTPTLTNYVSQILLKAVAYEGINVSTTQSPYYSTAILSTPPSEISITGSSTITAQGKLTATSASATVNLLTNATLTYENIPLTQYSFNGIIVTPGYAAINGTTAMAYVIGALYNKTSDYVLSFAGSQEPMQVMNNNLTEVTTLAPFGLTLLAPSVPATETGTSPLQLEFFTVPSTSYIALVDFGLWGNLTSVTVSAYDTVNNKLSVNLGYFYGIVIPPSISTAPYNYQNFICPNNYVTVTIYDPDAVLDPYPSGSFTTSSLPLKYGNMNITGAVIFPGSSVYNPSGVFGYSNFNKGAAVTTFTYTAQSGPFSPVALTGNTNYLSQYADNNPTDNYYFIQTVNGMPVLMGGLSIVASPVSASLPSSTSSPGFMYLLPSAAQVPSPLPGMATPNYNLNIYITYKIDGATVGNNMINGLYVASQNTLIYVVPNGSFVGSNIKLTYTTTDYAVLHYFYSTGQYKVFKTVSVPNVTANLYFPSSTTPLYQLSVPLYLSEPYYGSPLPTYIGLGTNGTSLWNSPNYVLFGVSAVQQYLGFIKSISVTLSNGTTVVIPLTTSNMQTLFPQLVGQELQACNGTFQFGISITGLEKLLNLNVQQLNNSILSVTYHDYVTGETLTATTKLVALSTLSLVAKGAGVVEFLLTAYPYTGNITFAPPWFIAENVVKQPFMTYSDLQFAKTNPSAILSLSTVNITVVGLGGKASVYYNSTSGQTVITNIYGQTVATLSGNVLPTLTELAAGNGTFTGSLQFTIVPNNTVVQIPSSLTKTSFAVYTNGSLAIVLNGKAYSLGPAGLFLLPFVTYTGSAIGANATAIITVSDGVGTSTTQVPITAENFTPIRLAPFQVPAQVPLPNAPKLKYEYNGSIVITPQQQVLKIYVTSILPYPQEFQIQAFVYEASQFNVHTGSPTAAPVYFSYSAVRAYPALGIGTSVPNLLVYVQLQGISNLPAGKYVIVLSAVPFAGGPVLSEYPAQLIFTNVTLTQ
modifications: highly glycosylated
notes: S-layer protein SlaA of Sulfolobus acidocaldarius, locus saci2355, extracted from the S-layer of wild-type cells; Same preparation as m1 without the dye; it may also contain SlaB; also called unlabeled exogenous S-layer proteins; soluble S-layer proteins
As for B1, the binding result is “binds”.
